Consider two molecules from patent publication US20210047435A1 (Janssen / Centocor, published 2021).

Positions count from the first letter of the chain named. In names and notes the source's numbering stands.

The experiment has as its target T1, LTBR (form used for the KD not stated) (human, UniProt P36941 31-227, limits assumed).
T1 construct: neither the method nor the LTBR construct is described; also called human LTBR; TNFRSF3
Nature of the experiment: method not stated; stapled scFv variant against LTBR.

T1 sequence (P36941 31-227 limits assumed): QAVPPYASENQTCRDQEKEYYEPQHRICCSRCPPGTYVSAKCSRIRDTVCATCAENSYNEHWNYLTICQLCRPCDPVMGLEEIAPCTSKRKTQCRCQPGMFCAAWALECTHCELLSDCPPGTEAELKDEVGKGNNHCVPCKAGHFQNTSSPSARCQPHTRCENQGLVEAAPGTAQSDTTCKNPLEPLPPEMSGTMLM

B1: stapled scFv (VL3 Y36F S49Y F87Y) BHA10 (VH-VL) (scFv)
scFv: QVQLVQSGAEVKKPGSSVKVSCKASGYTFTTYYLHWVRQAPGCGLEWMGWIYPGNVHAQYNEKFKGRVTITADKSTSTAYMELSSLRSEDTAVYYCARSWEGFPYWGQGTTVTVSSGGGSGGGSGCPPCGGGGDIQMTQSPSSLSASVGDRVTITCKASQNVGINVAWFQQKPGKAPKSLIYSASYRYSGVPSRFSGSGSGTDFTLTISSLQPEDFATYYCQQYDTYPFTFGCGTKVEIK
As for B1, the Kd is about 60 nM.

B2: stapled scFv (VH CDR1 Y33A) BHA10 (VH-VL) (scFv)
scFv: B1 scFv with Y33A, F169Y, Y182S, Y220F
In turn, B2 returned a Kd of about 600 nM.

By Kd is commonly meant the constant that tells how readily two partners part at equilibrium. Low values mean tighter binding, high ones weaker binding.
